According to patent US20200157219A1 (SYSTIMMUNE, published 2020):
Positions count from the first letter of the chain named. Blank lines part the entries; values can stand above or below the binder they belong to.

Key:
[1] = target: T1, human PD-1 expressed on Jurkat cells (human, UniProt Q15116 25-288); test: flow cytometry on Jurkat/huPD-1 cells, biotinylated PD-L2 detected with streptavidin-APC, MFI
T1 construct: whole, on cells; also called huPD-1; Jurkat/huPD-1 clonal cell line

[2] = target: T2, human PD-1 extracellular domain (human, UniProt Q15116 25-170); test: bio-layer interferometry (Octet Red 96), antibody on anti-human Fc biosensor, PD-1 ECD in solution, 1:1 global fit, 30 C
T2 construct: extracellular domain; Soluble analyte in the bio-layer interferometry assay; also called recombinant human PD-1 extracellular domain protein
T2 sequence (Q15116 25-170): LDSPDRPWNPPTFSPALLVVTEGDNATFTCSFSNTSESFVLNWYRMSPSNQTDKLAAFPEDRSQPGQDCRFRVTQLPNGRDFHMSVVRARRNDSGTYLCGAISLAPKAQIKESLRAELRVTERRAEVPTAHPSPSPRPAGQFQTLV
Description: The binding kinetics of selected anti-PD-1 antibodies AB1-AB5 and AB1HU-AB5HU was determined by bio-layer interferometry analysis on a ForteBio Octet Red 96 instrument. First, purified antibodies were produced by protein A chromatography using HEK-293 transiently-transfected antibody supernatants. This assay was performed by immobilizing the purified antibodies to anti-human Fc biosensors. PD-1 binding to and dissociation from the biosensors was then observed at various concentrations of PD-1. Specifically, eight anti-human Fc biosensors were placed into wells containing the same purified antibody for 5 minutes. Biosensors were equilibrated in kinetics buffer (Pall ForteBio) for 1 minute to establish a baseline. Association of PD-1 was observed by placing the biosensors into wells containing various concentrations of human PD-1 extracellular domain for 5 minutes. Dissociation was measured after transfer of the biosensors into kinetics buffer and monitoring the interferometry signals for 15 minutes. All steps of the assay were performed at 30° C. with shaking at 1000 RPM. The on and off rates (kon and koff) and the equilibrium binding constant KD were determined using the software provided by the manufacturer and were fit using a 1:1 binding global fit model comprising several of the concentrations tested.

[3] = target: T1, human PD-1 expressed on Jurkat cells; test: blocking of biotinylated human PD-L1 binding to Jurkat/huPD-1 cells, flow cytometry, streptavidin-APC MFI
Description: The Jurkat/huPD-1 clonal cell line was labeled with FVS520 viability dye (BD Biosciences, 1:2000 dilution) for 15 minutes at room temperature. The labeled cells were then diluted in FACS buffer (2% FBS in PBS), added to V-bottom 96-well plates (50,000 cells per well), and stained with 0-100 nM anti-huPD1 or isotype control antibody on ice for 30 minutes. Cells were washed to remove excess antibody, then labeled with 15 ug/ml His-tag purified, monobiotinylated […] on ice for 30 minutes. Cells were washed again with FACS buffer, then labeled with 0.25 ug/ml APC-conjugated streptavidin on ice for 20 minutes. Cells were washed again with before acquisition on a BD FACSCalibur flow cytometer equipped with the Cytek AMS plate loader system. AB1HU-AB5HU results in this assay are shown in FIG. 3. and show the median fluorescence intensity (MFI) on the APC channel after gating on live cells. Error bars represent the standard deviation of duplicate samples.

[4] = target: T1, human PD-1 expressed on Jurkat cells; test: flow cytometry on Jurkat/huPD-1 cells, anti-human Fc AF647 secondary, MFI
Description: The human PD-1 gene was subcloned into the pcDNA3.1 mammalian expression vector and transfected into the Jurkat human T cell line. A clonal cell population expressing high levels of huPD-1 was generated by G418 drug selection and single-cell sorting. This Jurkat/huPD-1 clonal cell line was labeled with FVS520 viability dye (BD Biosciences, 1:2000 dilution) for 15 minutes at room temperature. The labeled cells were then diluted in FACS buffer (2% FBS in PBS), added to V-bottom 96-well plates (50,000 cells per well), and stained with 0-25 nM anti-huPD1 or isotype control antibody on ice for 30 minutes. Cells were washed to remove excess primary antibody, then labeled with Alexa luor 647-conjugated goat anti-human Fc secondary antibody (Jackson Immunoresearch, 1:1600 dilution) on ice for 20 minutes. The labeled cells were then washed with FACS buffer before acquisition on a BD FACSCalibur flow cytometer equipped with the Cytek AMS plate loader system. Data points show the median fluorescence intensity (MFI) on the AF647 channel after gating on live cells. Nonlinear regression methods were used to fit curves to each data set, and error bars represent the standard deviation of duplicate samples.

[5] = target: T1, human PD-1 expressed on Jurkat cells; test: blocking of biotinylated human PD-L2 binding to Jurkat/huPD-1 cells, flow cytometry, streptavidin-APC MFI
Description: The Jurkat/huPD-1 clonal cell line was labeled with FVS520 viability dye (BD Biosciences, 1:2000 dilution) for 15 minutes at room temperature. The labeled cells were then diluted in FACS buffer (2% FBS in PBS), added to V-bottom 96-well plates (50,000 cells per well), and stained with 0-100 nM anti-huPD1 or isotype control antibody on ice for 30 minutes. Cells were washed to remove excess antibody, then labeled with 15 ug/ml His-tag purified, monobiotinylated huPD-L2 on ice for 30 minutes. Cells were washed with FACS buffer, then labeled with 0.25 ug/ml APC-conjugated streptavidin on ice for 20 minutes. Cells were washed again with FACS buffer before acquisition on a FACSCalibur flow cytometer equipped with the Cytek AMS plate loader system. […] Error bars represent the standard deviation of duplicate samples.

T1 sequence (Q15116 25-288): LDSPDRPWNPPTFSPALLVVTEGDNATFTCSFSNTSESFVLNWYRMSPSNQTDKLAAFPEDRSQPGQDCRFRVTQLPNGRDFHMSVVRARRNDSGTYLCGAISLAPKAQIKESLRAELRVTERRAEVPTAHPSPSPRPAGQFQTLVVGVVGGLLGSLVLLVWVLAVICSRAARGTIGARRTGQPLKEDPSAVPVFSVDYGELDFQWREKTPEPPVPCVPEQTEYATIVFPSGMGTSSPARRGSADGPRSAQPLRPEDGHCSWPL

B2: AB2HU (antibody, human IgG1, kappa, V domains shown)
VH: QEQLLESGGGLVQPGGSLRLSCTASGFSFSSYWMCWVRQAPGKGLEWIGCITTGSGSTYYASWAKRRFTISKDNSKNTVTLQMNSLRAEDTAVYYCTRAFDLWGQGTLVTVSS
VL: DIQMTQSPSSLSASVGDRVTITCQASQSIYSYLNWYQQKPGKAPKLLIYGASNLASGVPSRFSGSGSGTDFTLTISSLQPEDFATYYCQSSWLSGAVGNAFGGGTKVEIKR
notes: Humanized, human gamma-1 / kappa constant domains as in the full-length entries; also called humanized form of antibody AB2
Kd [2]: 17 nM
koff [2]: 0.0015 s⁻¹
kon [2]: 89000 M⁻¹ s⁻¹
IC50 (read off the curve) [3]: ~2 nM
EC50 (read off the curve) [4]: ~0.6 nM
IC50 (read off the curve) [5]: ~0.2 nM

B3: AB2 (antibody, human IgG1, kappa, V domains shown)
VH: QEQLVESGGGLVQPEGSLTLTCTASGFSFSSYWMCWVRQAPGKGLEWIGCITTGSGSTYYASWAKRRFTISKTSSTTVTLQMTSLTAADTATYFCTRAFDLWGPGTLVTVSS
VL: DVVMTQTPASVSAVVGGTVTIKCQASQSIYSYLNWYQQKPGQPPKLLIYGASNLASGVSSRFKGSGSGTEFTLTISDLECADAATYYCQCSWLSGAVGNAFGGGTEVVVKR
notes: Rabbit variable domains on human IgG1 / human kappa constant domains; also called AB2 chimeric
Kd [2]: 86 nM
koff [2]: 0.0057 s⁻¹
kon [2]: 67000 M⁻¹ s⁻¹

B4: AB4HU (antibody, human IgG1, kappa, V domains shown)
VH: EVQLVESGGGLVQPGGSLRLSCTASGFSLSSYAMSWVRQAPGKGLEYIGYIGDTTGIAYASWANGRFTISKDNTKNTVDLQMNSLRAEDTAVYYCARGWSYLDIWGQGTLVTVSS
VL: ALVMTQSPSSLSASVGDRVTITCQASQNIYSNLAWYQQKPGKVPKLLIYQASTLASGVPSRFSGSGYGTDFTLTISSLQPEDVATYYCQGGYYSAALNTFGGGTKVEIKR
notes: Humanized, human gamma-1 / kappa constant domains as in the full-length entries; also called humanized form of antibody AB4
Kd [2]: 4.3 nM
koff [2]: 0.00038 s⁻¹
kon [2]: 87000 M⁻¹ s⁻¹

B5: AB3HU (antibody, human IgG1, kappa, V domains shown)
VH: QEQVKETGGGLVQPGGSLRLSCAASGFTISSYGVSWVRQAPGKGLEWVALIFPGIGFKDYASWVNGRFTLSSDNAQNTVELQMNSLRAEDTAVYYCARDLDLWGQGTLVTVSS
VL: DIQMTQSPSSLSASVGDRVTITCQSSPSVYSNYLSWYQQKPGKVPKLLIYYASTLASGVPSRFSGSGSGTDFTLTISSLQPEDVATYYCAGGYSSSTRAFGGGTKVEIKR
notes: Humanized, human gamma-1 / kappa constant domains as in the full-length entries; also called humanized form of antibody AB3
Kd [2]: 1.1 nM
koff [2]: 0.00014 s⁻¹
kon [2]: 130000 M⁻¹ s⁻¹
IC50 (read off the curve) [3]: ~1 nM
EC50 (read off the curve) [4]: ~1 nM
IC50 (read off the curve) [5]: ~1 nM

B7: AB4 (antibody, human IgG1, kappa, V domains shown)
VH: QSLEESGGRLVTPGTPLTLTCTVSGFSLSSYAMSWVRQAPGKGLEYIGYIGDTTGIAYASWANGRFTISKTSTTVDLKITSPTTGDTATYFCARGWSYLDIWGQGTLVTVSS
VL: ALVMTQTPSSVSAAVGGTVTINCQASQNIYSNLAWYQQKPGQPPSLLIYQASTLASGVSSRFSGSGYGTEFTLTISDLECADAATYYCQGGYYSAALNTFGGGTEVVVKR
notes: Rabbit variable domains on human IgG1 / human kappa constant domains; also called AB4 chimeric
Kd [2]: 9.2 nM
koff [2]: 0.001 s⁻¹
kon [2]: 110000 M⁻¹ s⁻¹

B8: AB1 (antibody, human IgG1, kappa, V domains shown)
VH: QSLEESGGDLVKPEGSLTLTCKASGFDFSSGYWICWVRQAPGKGLELIACIYAGTSGSTSYASWARGRFTISETSSTTVTLQMTSLTAADSATYFCARNLYTYNSLWGQGTLVTVSS
VL: QVLTQTASSVSAAVGGTVTISCQSSQSVYDNNWLAWYQQKPGQPPMLLIYTVSTLASGVSSRFKGSGSGTQFTLTISGVQCDDAATYYCQGTYYSSGWNFAFGGGTEVVVKR
notes: Rabbit variable domains on human IgG1 / human kappa constant domains; purified by protein A from HEK-293 supernatant; also called AB1 chimeric; rabbit/human chimeric anti-PD-1 antibody AB1
Kd [2]: 4.8 nM
koff [2]: 0.00016 s⁻¹
kon [2]: 36000 M⁻¹ s⁻¹

Now from value to binder:

binding result [1]: binds
B1: recombinant human PD-L2 (ligand, UniProt Q9BQ51 20-220, looked up)
ligand: LFTVTVPKELYIIEHGSNVTLECNFDTGSHVNLGAITASLQKVENDTSPHRERATLLEEQLPLGKASFHIPQVQVRDEGQYQCIIIYGVAWDYKYLTLKVKASYRKINTHILKVPETDEVELTCQATGYPLAEVSWPNVSVPANTSHSRTPEGLYQVTSVLRLKPPPGRNFSCVFWNTHVRELTLASIDLQSQMEPRTHPT
modifications: monobiotinylated, His-tag purified
notes: recombinant soluble protein; also called huPD-L2

Kd [2]: 0.9 nM
koff [2]: 0.00012 s⁻¹
kon [2]: 130000 M⁻¹ s⁻¹
B6: AB3 (antibody, human IgG1, kappa, V domains shown)
VH: B5 VH with R19T, A23K, V48I, R87T, E89A, V93A, Y95F
VL: QVLTQTPSPVSAAVGGTVSISCQSSPSVYSNYLSWFQQKPGQPPKLLIYYASTLASGVPSRFKGSGSGTQFTLTISDVQCDDAATYYCAGGYSSSTRAFGGGTEVVVKR
notes: Rabbit variable domains on human IgG1 / human kappa constant domains; also called AB3 chimeric

Kd [2]: 6.6 nM
koff [2]: 0.0004 s⁻¹
kon [2]: 61000 M⁻¹ s⁻¹
B9: AB5HU (antibody, human IgG1, kappa, V domains shown)
VH: EVQLLESGGGLVQPGGSLRLSCAASGFTFSSSHWICWVRQAPGKGLEWIACIYTGSIDVFYYASWAKGRFTISRDNSKNTLYLQMNSLRAEDTAVYYCARAANTDTTYFNLWGQGTLVTVSS
VL: AYDMTQSPSSLSASVGDRVTINCQASQSINNQLSWYQQKPGKVPKLLIYGASTLASGVPSRFTGSGSGTDFTLTISSLQPEDVATYYCHVHYCSGGSCFWAFGGGTKVEIKR
notes: Humanized, human gamma-1 / kappa constant domains as in the full-length entries; also called humanized form of antibody AB5; ABSHU [sic]

Kd [2]: 3.3 nM
koff [2]: 0.00026 s⁻¹
kon [2]: 78000 M⁻¹ s⁻¹
B10: AB5 (antibody, human IgG1, kappa, V domains shown)
VH: QEQLEESGGDLVKPEGSLTLTCTASGFSFSSSHWICWVRQAPGKGLEWIACIYTGSIDVFYCASWAKGRFTISKPSSTTVTLQVPSLTAADTATYFCARAANTDTTYFNLWGPGTLVTVSS
VL: AYDMTQTPSSVSAAVGGTVTINCQASQSINNQLSWYQQKPGQPPKLLIYGASTLASGVPSRFTGSGSGTEFTLTISGVQCDDAATYYCHVHYCSGGSCFWAFGGGTEVVVKR
notes: Rabbit variable domains on human IgG1 / human kappa constant domains; also called AB5 chimeric

Kd [2]: 16 nM
koff [2]: 0.0002 s⁻¹
kon [2]: 12000 M⁻¹ s⁻¹
IC50 (read off the curve) [3]: ~4 nM
B11: AB1HU (antibody, human IgG1, kappa, V domains shown)
VH: EVQLVESGGGLVQPGGSLRLSCAASGFDFSSGYWICWVRQAPGKGLELIACIYAGTSGSTSYASWARGRFTISETSKNTVTLQMNSLRAEDSAVYYCARNLYTYNSLWGQGTLVTVSS
VL: DIQMTQSPSTLSASVGDRVTITCQSSQSVYDNNWLAWYQQKPGKAPKLLIYTVSTLASGVPSRFSGSGSGTEFTLTISSLQPDDFATYYCQGTYYSSGWNFAFGGGTKVEIKR
notes: Humanized, human gamma-1 / kappa constant domains as in the full-length entries; also called humanized form of antibody AB1
